# Experimental data: patent publication US20060106200A1
# Target: full length, processed caspase-9 (residues 1-416) (UniProt P55211)
# Experiment: gel filtration chromatography of equi-molar Apaf-1 (1-591) and caspase-9
# Sequence of full length, processed caspase-9 (residues 1-416) (P55211 whole entry, form in doubt, the tested form may be a part): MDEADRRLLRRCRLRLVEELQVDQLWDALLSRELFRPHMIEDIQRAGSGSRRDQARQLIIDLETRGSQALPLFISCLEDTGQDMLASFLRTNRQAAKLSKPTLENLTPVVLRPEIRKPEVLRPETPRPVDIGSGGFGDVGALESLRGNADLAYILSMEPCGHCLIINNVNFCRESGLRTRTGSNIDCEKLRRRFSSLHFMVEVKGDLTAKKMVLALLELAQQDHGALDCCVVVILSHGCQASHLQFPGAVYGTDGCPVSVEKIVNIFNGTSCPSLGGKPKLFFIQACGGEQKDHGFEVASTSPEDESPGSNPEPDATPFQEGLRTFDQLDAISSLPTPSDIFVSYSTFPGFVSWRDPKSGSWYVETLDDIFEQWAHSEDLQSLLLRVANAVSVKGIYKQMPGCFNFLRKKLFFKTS
substance,measurement,value
soluble Apaf-1 fragment (residues 1-591 of full length Apaf-1) (from UniProt O14727 1-591),apparent molecular mass of the complex peak on gel filtration,130 kilodaltons
